Data as given in article PMC7452893 (Nature Communications, 2020).

How the values were obtained:
Conditions in all cases: both partners purified
[1] = biological target: T1, SARS-CoV-2 spike glycoprotein, soluble (amino acids 1-1207) (SARS-CoV-2, Wuhan-Hu-1 (QHD43416), UniProt P0DTC2, proline substitution at position 986 | proline substitution at position 987 | …); experiment: ELISA; direct ELISA; plates coated with 2 μg/ml recombinant spike, S1, RBD or NTD; scFv-Fc detected with AP-conjugated anti-human IgG; specificity panel (Fig. 1c)
T1 construct: also called spike protein

[2] = biological target: T2, SARS-CoV-2 spike receptor-binding domain (RBD), monomeric (SARS-CoV-2, UniProt P0DTC2); experiment: as above
T2 construct: Called monomeric RBD in the BLI methods; Amino acids 1-15 are probably removed on secretion (surmise); also called monomeric RBD

[3] = biological target: T2, SARS-CoV-2 spike receptor-binding …; experiment: BLI; Octet; biotinylated scFv-Fc on streptavidin sensors; increasing concentrations of monomeric RBD, 300 s association, 600 s dissociation; 30 °C; 1:1 binding model

Row | Binder | binding result [1] | binding result [2] | Kd [3]
1 | MD17 (antibody, V domains shown, scFv-Fc format; also called MD17 scFv-Fc) VH: EVQLLESGGGLVQPGGSLRLSCSASGFTFSTYVMNWVRQAPGKGLEHVSGISSDGGITYYADSVKGRFTISRDNSKNTLYLQMSSLRVEDTAVYYCVKDQDSSSWYDAFDIWGQGTMVTVSS VL: DIVMTQSPSSLSASVGDRVTITCRASQSISNYLNWYQQKLGKAPKLLTYAASRLQSGVPSRFSASGSGTEFTLTISSLQPEDFATYYCQQSYTTPLTFGGGTKLEIK | binds | – | –
2 | MD47 (antibody, V domains shown, scFv-Fc format; also called MD47 scFv-Fc) V domain 1: QMQLVQSGGGLVQPGGSLRLSCAASGFTFSSYAMSWVRQAPGKGLEWVSAISSGGSTYYADSVKGRFTISRDNSKNTLYLQMNSLRAEDTAVYYCAKDLVTAPSYEAFDIWGQGTMITVSS V domain 2: NFMLTQPPSVSVAPGKTARITCGGNNIGSKSVHWYQQKPGQAPVLVIYYDSDRPSGIPERFSGSNSGNTATLTISRVEAGDEADYYCQVWDSSSHHHVVFGGGTKGTVL | – | binds | –
3 | MD62 (antibody, V domains shown, scFv-Fc format; also called MD62 scFv-Fc) VH: EVQLVQSGGGLIQPGGSLRLSCAASGVTVSSNYMTWVRQAPGKGLEWVSLIYSGGSTYYADSVKGRFTISRDNSKNTLYLQMNSLRAEDTAVYYCARDLQYYGMDVWGQGTMVTVSS VL: AIRMTQSPSSVSASVGDRVTITCRASQDIGSWLGWYQQKPGKAPKLLIYAASSLAGGVPSRFSGSGSGTDFTLTISSLQPEDFATYYCQQANSFPLTFGGGTKLEIK | binds | – | –
4 | MD29 (antibody, V domains shown, scFv-Fc format; also called MD29 scFv-Fc) VH: QMQLVQSGGGLVQPGGSLRLSCSASGFTFSTYVMNWVRQAPGKGPEHVSGISSDGGITYYADSVKGRFTISRDNSKNTLYLQMSSLRVEDTAVYYCVKDQDSSSWYDAFDIWGQGTMVTVSS VL: NIRLTQSPSSLSASVGDRVTITCRATQSISSYLNWYQQKPGKAPNLLIYAASSLQSGVPSRFSGSGSGTDFTLTISSLQPEDFATYYCHQTYTSPYTFGQGTKLEIK | binds | – | 0.4 to 5.8 nM
5 | MD67 (antibody, V domains shown, scFv-Fc format; also called MD67 scFv-Fc) VH: EVQLVESGGGLVQPGGSLRLSCAASGFTVSSNYMTWVRQAPGKGLEWVSVIYSGGSTFYADSVKGRFTISRHNSKNTLYLQMNSLRAEDTAVYYCARDLSVRGGMDVWGQGTTVTVSS VL: not shown | – | – | 0.4 to 5.8 nM
